No end group written: not given here.
Assays:
[1] = target: T1, biotinylated peptide corresponding to the 17 N-terminal amino acid residues of huntingtin (Nt-HD) (UniProt P42858 1-17); assay: SPR, BIAcore 2000; HD peptide (1-17) with C-terminal biotin on a streptavidin chip, sFv in flow
T1 construct: range 1-17; Synthetic peptide; Captured on streptavidin (beads, plates or a BIAcore chip); also called biotinylated Nt-HD; biotinylated HD-peptide
T1 peptide (looked up): MATLEKLMKAFESLKSF-biotin
Procedure: (§1) For regeneration of the surface after binding of intrabody, 5 μl of 50 mM NaOH containing 1 M NaCl was injected, resulting in a return to baseline. […] The koff was determined from the dissociation part of the sensorgram at the highest concentration of intrabody analyzed by using a flow rate of 20 μl/min. The Kd was calculated as koff/kₒₙ.
(§2) To characterize the precise binding properties of the intrabody of the invention, further qualitative and quantitative studies of sFv binding to immobilized antigen were conducted in vitro.

[2] = target: T1, biotinylated peptide corresponding to …; assay: SPR, BIAcore 2000; HD peptide (1-17) with C-terminal biotin on a streptavidin chip, sFv in flow; 1:1 Langmuir model
Procedure: as §1, §2

[3] = target: T1, biotinylated peptide corresponding to …; assay: BIAcore 2000 surface plasmon resonance, C4 sFv at 60, 80 and 100 nM over biotinylated HD peptide on a streptavidin sensor chip
Procedure: as §1, §2

B1: α-Nt-HD-C4 sFv (purified soluble sFv) (scFv)
scFv: QVQLQESGGGLVQPGGSLRLSCAASGFTFSSYSMSWVRQAPGKGLEWVAVISYDGSNKYYADSVKGRFTISRDNSKNTLYLQMNSLRAEDTAVYYCARDRYFDLWGRGTLVTVSSGGGGSGGGGSGGGGSQSALTQPASVSGSPGQSITISCTGTSSDIGAYNYVSWYQQYPGKAPKLLIYDVSNRPSGISNRFSGSKSGDTASLTISGLQAEDEADYYCSSFANSGPLFGGGTKVTVL
notes: Human sFv (VH-linker-VL) from a phage display library; Expressed in E. coli from pSYN-1 and purified on Ni-NTA; In the first ELISA screens it was used as bacterial supernatant from pHEN-1; Two subclones (clone 1, clone 2) were purified; they are treated here as the same molecule; also called N-HD-C4 sFv; anti-huntingtin intrabody C4 sFv; not shown: hexaHis tail from the pSYN-1 vector (sFv is also …)
Ka [1]: 1.3e+08 M⁻¹
Kd [2]: 7.9 nM
koff [3]: 0.0015 s⁻¹
kon [3]: 190000 M⁻¹ s⁻¹

From patent publication US20050255113A1, “Methods and compositions for inhibiting polypeptide accumulation associated with neurological disorders” (New York State Department of Health and Abgenix, Inc., priority 1999, published 2005)
